According to article PMC3273814:

Test system: T1, Ms6564 (Mycobacterium smegmatis mc2 155), ORF:45299f77
T1 sequence: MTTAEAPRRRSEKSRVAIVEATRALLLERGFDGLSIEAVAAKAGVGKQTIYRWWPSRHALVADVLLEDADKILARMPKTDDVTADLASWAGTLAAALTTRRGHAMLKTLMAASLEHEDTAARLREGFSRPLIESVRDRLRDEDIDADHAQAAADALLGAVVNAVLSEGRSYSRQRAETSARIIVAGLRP
Assay: DNase I footprinting

## TTAAATCCGCTGGCCCCGATCACCAGTTTCGTCGCTGTCATAGGCCCTTGCGCTCGTGTCCTCGGGTCATAAACGAGACGGTACGTCTCGTCTTGTGGCAGAGTACGGGGTGTCACTTTTCGTGTAAAGGCCTGCGATGACCACCGCTGAAGCGCCCCGCCGGCGCAGTGAGAAGTCGCGGGTGGCCAT (double strand) [Ms6564p4 (p4-1 / p4-2)]
  binding: binds
